Reference: the supplement of paper PMC9732359
± gives the uncertainty stated by the source.

Experiment: protein stability index of a GFP-peptide fusion (yeast GPS) (PSI 1-4); higher = more stable; sorted into four equal gates, so the index is relative within each strain
Settings: doa10∆
Summary of the method: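 The protein stability index of a peptide was calculated by multiplying its read frequency in each gate by that gate's number and adding the products. The peptides were tiled 17-residue stretches of yeast proteins, fused downstream of GFP on a Cherry-expressing plasmid and carried in yeast as a pooled library. Mid-log cultures in leucine-free medium were sorted into four equal gates by GFP/Cherry ratio, and each gate's plasmids were PCR-amplified and Illumina-sequenced.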

| Sequence | protein stability index |
| --- | --- |
| STPENVPRLFDLVKPKN [SMC4] | 2.65 ± 0.077 |
| STPGGGSVFNMNGNTNA [YOR098C/NUP1] | 2.87 ± 0.098 |
| STYKHDRGIANIRNNIE [SRB4] | 3.41 ± 0.19 |
| SVAEKEEIRSQIDHFKS [SWI3] | 1.73 ± 0.046 |
| SVDPQSSSTQNVFVILM [DIS3] | 2.83 ± 0.16 |
| SVLKDSDDKTRQLSPHT [PRE1] | 2.56 ± 0.088 |
| SVMPPNEVYSAYVVNDT [DLS1] | 2.77 ± 0.087 |
| SVQTFGKKKSATAVAHV [RPS16A] | 2.37 ± 0.065 |
| SVRIDGRKVLQKVQGES [SIR4] | 2.75 ± 0.089 |
| SVRTAVFSALKNLISRI [ECM29] | 2.34 ± 0.049 |
| SVTETESISQTPISNEQ [SRP68] | 2.89 ± 0.099 |
| SWNESEDTLSGYDPIVS [PRP28] | 3.04 ± 0.12 |
| SYFSPINSSNEALVQAF [YCG1] | 2.33 ± 0.063 |
| SYNWGAKAKRRHTTGTG [RPL37A] | 3.37 ± 0.097 |
| TAAEKKERLTKEAAAIA [RPL8B] | 2.15 ± 0.072 |
| TAFALGIACAGKGLQSA [RPN2] | 1.25 ± 0.086 |
| TAKETKMLMNLHKEQWQ [RPN11] | 3.28 ± 0.097 |
| TAKLQMRRFILGTTEGD [RPN14] | 1.41 ± 0.27 |
| TANAKHTSSNSREIAQP [SMB1] | 2.91 ± 0.14 |
| TATLAWGVNLPAHTVII [BRR2] | 1.26 ± 0.065 |
| TATYNDNMSEEQWLRQF [SNF2] | 3.28 ± 0.092 |
| TAVGKAAVVKTSSRQTV [RPT5] | 3.39 ± 0.065 |
| TCSSDQHIKVFKLDKDT [YGL100W/SEH1] | 3 ± 0.098 |
| TCVSMAPIQLKIDLLSG [RGR1] | 1.67 ± 0.046 |
| TDAHTPLARNYIKSMDL [RPR2] | 2.67 ± 0.044 |

| Sequence | protein stability index |
| --- | --- |
| TDCKFIRVSGAELVQKY [RPT6] | 3.01 ± 0.14 |
| TDDYFEELRDLYQTYHV [FAS1] | 3.09 ± 0.22 |
| TDIEEGMRVGVDRSKYN [RPT1] | 3.13 ± 0.14 |
| TDLESKSRMINFLDAPG [SNU114] | 2.65 ± 0.078 |
| TDLNQDSAAIIAATGLN [GRR1] | 1.62 ± 0.17 |
| TDQLIQNIETRQLANLI [NUT1] | 3.15 ± 0.11 |
| TDSRTGQSTILVGSEIY [CDC53] | 2.77 ± 0.056 |
| TDWDPQFNAITGLNGSG [SMC2] | 2.94 ± 0.19 |
| TDYFLPKNYSLHGLRSF [YJL039C/NUP192] | 1.96 ± 0.061 |
| TEAEETSIHSTISILAA [RRP43] | 1.28 ± 0.043 |
| TEAVTQLIGSNIELHSL [PUP1] | 3.29 ± 0.2 |
| TEENIKGETNSEISIID [RRP45] | 2.96 ± 0.07 |
| TEGEPKKKRGFLGLFGR [SRP68] | 3.17 ± 0.094 |
| TEGPSDKKLNLNLPLQF [SNF12] | 3.12 ± 0.1 |
| TEKNREIYKQLNDRQEE [YIL149C/MLP2] | 3.42 ± 0.073 |
| TELKKITDKTIKAFMDS [IRR1] | 2.99 ± 0.065 |
| TELSNKETTIEKLSSEI [YIL149C/MLP2] | 3.03 ± 0.073 |
| TEQFCATLNYIDKNHGF [SRB7] | 2.26 ± 0.055 |
| TEQTKSKNPLSLTEATK [YLR335W/NUP2] | 3.08 ± 0.045 |
| TESIALSSMRFKPSQEP [RRI1] | 2.85 ± 0.072 |
| TETKRLVVIRFGRKNDR [DIB1] | 2.87 ± 0.11 |
| TFEFINIAFDAHMSIGC [YML031W/NDC1] | 1.2 ± 0.074 |
| TFKSVSKYGMLLLRCDD [POP3] | 1.89 ± 0.058 |
| TFLPSYMKFSNKYLELC [RRI2] | 2.25 ± 0.052 |
| TFSGALGKQSSSLLSRL [FAS2] | 3.33 ± 0.097 |

| Sequence | protein stability index |
| --- | --- |
| TFTIQLLKLTKVFIRES [YML103C/NUP188] | 2.17 ± 0.063 |
| TFVYILEKLIFDMTNHY [SRB8] | 1.71 ± 0.061 |
| TGGGLFGSKPTGATSLF [YGL172W/NUP49] | 3.45 ± 0.11 |
| TGGQTIDNGTGRTGNGN [MED6] | 3.06 ± 0.13 |
| TGKERSKKRKLNSLTNL [SNM1] | 2.41 ± 0.11 |
| TGKVSEFISIYSNSHQM [RET1] | 2.83 ± 0.092 |
| TGMEPGKTSFFQALGVP [RPP0] | 2.89 ± 0.13 |
| TGNIKHEDLVNSIESKN [COR1] | 3.13 ± 0.093 |
| TGRLFQVEYALEAIKQG [PRE5] | 2.94 ± 0.11 |
| TGVSVEAVDDVFQAKMM [RPN11] | 2.8 ± 0.14 |
| TGWHVDQAIVTETKRLV [DIB1] | 1.88 ± 0.074 |
| THLHEALDIVCSDFVKI [NUT1] | 2.28 ± 0.089 |
| THNFKLSGVSNSMDMVD [RGR1] | 3.09 ± 0.068 |
| TIELAGGGYFSAAGMTA [FAS1] | 2.87 ± 0.12 |
| TIFSVMVEWLESRSFSP [PRP8] | 2.13 ± 0.077 |
| TIHAKRKIVFRCSECIK [RPN4] | 2.39 ± 0.056 |
| TIHRSFTICLNDRNPRL [CSN12] | 2.82 ± 0.065 |
| TILSSKLSNIWMQRQLI [SRB2] | 2.33 ± 0.11 |
| TINGKVNGRTKSNTIPV [GAL11] | 3 ± 0.091 |
| TISKTVSSTIPRETIPF [FAS2] | 2.96 ± 0.072 |
| TITTILILGLNTSIAQF [YML103C/NUP188] | 1.83 ± 0.039 |
| TIYNLQHHVTDADKLSF [YML031W/NDC1] | 1.94 ± 0.04 |
| TKAIQGCSKICDLSSKF [YCS4] | 3.15 ± 0.083 |
| TKEYLVQNLRSWETKLK [CSN9] | 2.96 ± 0.099 |
| TKHPSLKTLTHKQIHTT [POP7] | 2.21 ± 0.039 |

Same assay, conditions: pdr5∆

| Sequence | protein stability index |
| --- | --- |
| STPENVPRLFDLVKPKN [SMC4] | 3.11 ± 0.087 |
| STPGGGSVFNMNGNTNA [YOR098C/NUP1] | 3.6 ± 0.2 |
| STYKHDRGIANIRNNIE [SRB4] | 3.27 ± 0.14 |
| SVAEKEEIRSQIDHFKS [SWI3] | 2.42 ± 0.084 |
| SVDPQSSSTQNVFVILM [DIS3] | 2.43 ± 0.17 |
| SVINVSAQRDRRYRKRN [RPS17B] | 3.04 ± 0.25 |
| SVKEDVKNNQELDQEYR [SMC4] | 3.53 ± 0.25 |
| SVLKDSDDKTRQLSPHT [PRE1] | 2.72 ± 0.11 |
| SVMPPNEVYSAYVVNDT [DLS1] | 2.95 ± 0.13 |
| SVQTFGKKKSATAVAHV [RPS16A] | 2.49 ± 0.069 |
| SVRIDGRKVLQKVQGES [SIR4] | 3.11 ± 0.067 |
| SVRTAVFSALKNLISRI [ECM29] | 2.31 ± 0.045 |
| SVTETESISQTPISNEQ [SRP68] | 3.01 ± 0.078 |
| SWNESEDTLSGYDPIVS [PRP28] | 3.14 ± 0.12 |
| SYFSPINSSNEALVQAF [YCG1] | 2.19 ± 0.061 |
| SYNWGAKAKRRHTTGTG [RPL37A] | 3.15 ± 0.055 |
| TAAEKKERLTKEAAAIA [RPL8B] | 2.25 ± 0.09 |
| TAFALGIACAGKGLQSA [RPN2] | 1.33 ± 0.11 |
| TAKETKMLMNLHKEQWQ [RPN11] | 3.36 ± 0.082 |
| TAKLQMRRFILGTTEGD [RPN14] | 1.45 ± 0.095 |
| TANAKHTSSNSREIAQP [SMB1] | 2.94 ± 0.099 |
| TATLAWGVNLPAHTVII [BRR2] | 1.4 ± 0.067 |
| TATYNDNMSEEQWLRQF [SNF2] | 3.33 ± 0.12 |
| TAVGKAAVVKTSSRQTV [RPT5] | 3.23 ± 0.07 |
| TCSSDQHIKVFKLDKDT [YGL100W/SEH1] | 3.07 ± 0.087 |
| TCVSMAPIQLKIDLLSG [RGR1] | 1.84 ± 0.062 |

| Sequence | protein stability index |
| --- | --- |
| TDAHTPLARNYIKSMDL [RPR2] | 2.73 ± 0.044 |
| TDCKFIRVSGAELVQKY [RPT6] | 3.24 ± 0.16 |
| TDDYFEELRDLYQTYHV [FAS1] | 2.69 ± 0.076 |
| TDIEEGMRVGVDRSKYN [RPT1] | 3.34 ± 0.27 |
| TDLESKSRMINFLDAPG [SNU114] | 2.95 ± 0.094 |
| TDLNQDSAAIIAATGLN [GRR1] | 1.32 ± 0.1 |
| TDQLIQNIETRQLANLI [NUT1] | 3.14 ± 0.12 |
| TDSRTGQSTILVGSEIY [CDC53] | 2.64 ± 0.066 |
| TDYFLPKNYSLHGLRSF [YJL039C/NUP192] | 2.13 ± 0.065 |
| TEAEETSIHSTISILAA [RRP43] | 1.63 ± 0.045 |
| TEAVTQLIGSNIELHSL [PUP1] | 3.23 ± 0.12 |
| TEENIKGETNSEISIID [RRP45] | 3.16 ± 0.064 |
| TEGEPKKKRGFLGLFGR [SRP68] | 3.46 ± 0.093 |
| TEGPSDKKLNLNLPLQF [SNF12] | 3.31 ± 0.093 |
| TEKNREIYKQLNDRQEE [YIL149C/MLP2] | 3.41 ± 0.063 |
| TELKKITDKTIKAFMDS [IRR1] | 2.42 ± 0.054 |
| TELSNKETTIEKLSSEI [YIL149C/MLP2] | 2.96 ± 0.097 |
| TEQFCATLNYIDKNHGF [SRB7] | 2.99 ± 0.061 |
| TEQTKSKNPLSLTEATK [YLR335W/NUP2] | 2.97 ± 0.053 |
| TESIALSSMRFKPSQEP [RRI1] | 3.31 ± 0.064 |
| TETKRLVVIRFGRKNDR [DIB1] | 2.24 ± 0.089 |
| TFEFINIAFDAHMSIGC [YML031W/NDC1] | 1.38 ± 0.067 |
| TFKSVSKYGMLLLRCDD [POP3] | 2.01 ± 0.067 |
| TFLPSYMKFSNKYLELC [RRI2] | 2.35 ± 0.052 |
| TFSGALGKQSSSLLSRL [FAS2] | 3.23 ± 0.087 |
| TFTIQLLKLTKVFIRES [YML103C/NUP188] | 3.12 ± 0.08 |

| Sequence | protein stability index |
| --- | --- |
| TFVYILEKLIFDMTNHY [SRB8] | 1.93 ± 0.042 |
| TGGGLFGSKPTGATSLF [YGL172W/NUP49] | 3.57 ± 0.1 |
| TGGQTIDNGTGRTGNGN [MED6] | 2.82 ± 0.066 |
| TGKERSKKRKLNSLTNL [SNM1] | 3.04 ± 0.093 |
| TGKVSEFISIYSNSHQM [RET1] | 2.44 ± 0.12 |
| TGMEPGKTSFFQALGVP [RPP0] | 3.2 ± 0.098 |
| TGNIKHEDLVNSIESKN [COR1] | 2.99 ± 0.11 |
| TGRLFQVEYALEAIKQG [PRE5] | 2.5 ± 0.15 |
| TGVSVEAVDDVFQAKMM [RPN11] | 3.06 ± 0.12 |
| TGWHVDQAIVTETKRLV [DIB1] | 2.24 ± 0.075 |
| THLHEALDIVCSDFVKI [NUT1] | 2.48 ± 0.063 |
| THNFKLSGVSNSMDMVD [RGR1] | 3 ± 0.074 |
| TIELAGGGYFSAAGMTA [FAS1] | 3.19 ± 0.11 |
| TIFSVMVEWLESRSFSP [PRP8] | 1.99 ± 0.094 |
| TIHAKRKIVFRCSECIK [RPN4] | 2.73 ± 0.066 |
| TIHRSFTICLNDRNPRL [CSN12] | 2.76 ± 0.063 |
| TILSSKLSNIWMQRQLI [SRB2] | 1.96 ± 0.1 |
| TINGKVNGRTKSNTIPV [GAL11] | 2.77 ± 0.12 |
| TISKTVSSTIPRETIPF [FAS2] | 2.96 ± 0.084 |
| TISSKPDILATDLIREK [YCS4] | 2.54 ± 0.25 |
| TITTILILGLNTSIAQF [YML103C/NUP188] | 1.67 ± 0.045 |
| TIYNLQHHVTDADKLSF [YML031W/NDC1] | 2.33 ± 0.053 |
| TKAIQGCSKICDLSSKF [YCS4] | 3.2 ± 0.069 |
| TKEYLVQNLRSWETKLK [CSN9] | 3.33 ± 0.21 |
| TKHPSLKTLTHKQIHTT [POP7] | 2.4 ± 0.04 |
